# From the nanobody polyreactivity screen of Harvey et al. (2022)
# Test: yeast display, Sf9 membrane polyspecificity reagent, FACS + sequencing; frameworks hold sequencing errors
# Summary of the method: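 A nanobody's polyreactivity label depends on the gate it was sorted from. Yeast display cells were stained with 10% biotinylated, detergent-solubilized Sf9 membrane reagent for 1 hour at 4 °C, enriched on streptavidin microbeads and sorted by FACS. The low and high (top ~1%) gates were set on anti-HA fluorescence for expression and streptavidin fluorescence for reagent binding.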
row,Sequence,polyreactivity (PSR sort gate)
1,QVQLVESGGGLVQAGGSLRLSCAASGFTFPRYAMGWYRQAPGKVRQLVAAISYRGGRTYYADSVKWRFTISRDNAKNTVFLQMNSLKPEDTAVYYCAADKTPSARYDYWGQGTQVTVSS,high polyreactivity
2,QVQLVESGGGLVQAGGSLRLSCAASGFTFPSYAMAWYRQDPGKEREFVAGITKGGGNTYYADAVKGRFTISRDNAKNTVYLQKNSLKQEDTAVYYCSADRSSFYWSHGTVYGYDYWGQGTQVTVSS,low polyreactivity
3,QVQLVESGGGLVQAGGSLRLSCAASGFTFPSYAMGWYRQAPGKERELVAAISQRGGSTYYADSVKGRFTISRDNAKNTVYLQMNSLKPEDTAVYYCAALAPRTGRPTYGYWGQGTQVTVSS,low polyreactivity
4,QVQLVESGGGLVQAGGSLRLSCAASGFTFPSYAMGWYRQAPGKERELVAAISSRGGSTYYADSVKGRFTISRDNAKNTVYLQMNSLKPEDTAVYYCNRLQVYSYYPYYPWYNYWGQGTQVTVSS,high polyreactivity
5,QVQLVESGGGLVQAGGSLRLSCAASGFTFPTYAMGWYRQAPGKERELVAAISTSGARTYYADSVKGRFTISRDNAKNTVYLQMNSLKPEDTAVYYCAAVFKAGSAYDYWGQGTQVTVSS,high polyreactivity
6,QVQLVESGGGLVQAGGSLRLSCAASGFTFPVYAMGWYRQAPGKEREFVAAITYIGGSTYADSVKGRFTISRDNAKNTVYLQMNSLKPEDTAVYYCNADDARLFDYWGQGTQVTVSS,low polyreactivity
7,QVQLVESGGGLVQAGGSLRLSCAASGFTFPWNVMGWYRQAPGKERELVAAITYDGGGTYADSVKGRFTISRDNAKNTVYLQMNSLKPEDTEVYFCNADLIYGEVYDYWGQGTQVTVSS,low polyreactivity
8,QVQLVESGGGLVQAGGSLRLSCAASGFTFPWYAMGWYRQAPGKERELVASISYRGDSTYYSDSVKGRFTISRDNAKNTVYLQMNSLKPEDTAVYYCADDYLWYNYAGQVDHDYDYWGQGTQVTVSS,low polyreactivity
9,QVQLVESGGGLVQAGGSLRLSCAASGFTFPYNAMGWYRQAPGKERELVAAISSTGGITYYADSVKGRFTISRDNEKNTVYLQMNSLKPEDTAVYYCNAGYPDYDWTWWHISYDYWGQGTQVTVSS,low polyreactivity
10,QVQLVESGGGLVQAGGSLRLSCAASGFTFPYNAMGWYSQARGKERELVAAISRSGTRTYYADSVKGRFTISRDNAKNTVYLQMNSLKPEDTAVYYCNARAAGYSRRGPGFDYWGQGTQVTVSS,high polyreactivity
11,QVQLVESGGGLVQAGGSLRLSCAASGFTFPYYAMGWYRQAPGKERELVAAITGRGGSTYYADSVKGRFTISRDNAKNTVYLQMNSLKPVDTAVFYCNAVRFAIHLADPYDYWGQGTQVTVSS,high polyreactivity
12,QVQLVESGGGLVQAGGSLRLSCAASGFTFPYYAMGWYSQAPGKERELVAAINRSGGITYYADSVRGRFTISRDNAKNTVYLQMKSLKPEDTAVYYCAAPSFGYRTWSVFGSGHDYWGQGTQVTVSS,high polyreactivity
13,QVQLVESGGGLVQAGGSLRLSCAASGFTFPYYSMGWYRQAPGTERELVAPISYNGGSTYYADSVMGRFTISRDNAKNTVYLQMNSRNPEDTAVYYCNAVYSDSGVVGYYYWGQGTQVTVSS,high polyreactivity
14,QVQLVESGGGLVQAGGSLRLSCAASGFTFQENAMGWYRQAPGKERELVAAISKSGGITYYADSVKGRFTISRDNAKNTVYLHMNSLKPEDTAVYYCNKGNAYVVYTSGYDYWGQGTQVTVSS,low polyreactivity
15,QVQLVESGGGLVQAGGSLRLSCAASGFTFQENAMGWYRQAPGKERELVAAISYGGGSTYYADSVKGRFTISRDNAKNTVYLQMNSLKPEDTAVYYCAADGGSAYAWYFAELYGYWGQGTQVTVSS,low polyreactivity
16,QVQLVESGGGLVQAGGSLRLSCAASGFTFQLYAMGWYRQAPGKERELVAAISSSGTSTYYADSVKGRFTISRDNAKNTVFLQMNSLKPEDTAVYYCAARGPYTYRRYGYWGQGTQVTVSS,high polyreactivity
17,QVQLVESGGGLVQAGGSLRLSCAASGFTFQNYAMGWYRQAPGKERELVAAISWGGGSTYYADSVKGRFTISRDNAQNTVYLQMNSLKPEDTAVYYCNAYEYLSAGYDYWGQGTQVTVSS,low polyreactivity
18,QVQLVESGGGLVQAGGSLRLSCAASGFTFQRYAKGWYRQAPGKERDLVAAITRNGGSTYYADSVKGRFTISRDNAKNTVYLQMNSLKPDDTAVYYCNAEWFQFYWYPHYKVTRYEYWGQVTQVTVSS,high polyreactivity
19,QVQLVESGGGLVQAGGSLRLSCAASGFTFQYYAMGWYRQAPGKERELVAAISWSGASTYYADSVKGRFTISRDNAKNTVYLQMNSLKPEDTAVYYCAADYWGHEYDYWGQGTQVTVSS,high polyreactivity
20,QVQLVESGGGLVQAGGSLRLSCAASGFTFQYYAMGWYRQAPGKERELVAAISWSGTSPYYADSVKGRFTISRDNAKNTVYLQMISLKPADTAVYDCAASVWYYYSDYDYWGQGTQVTVSS,high polyreactivity
21,QVQLVESGGGLVQAGGSLRLSCAASGFTFQYYAMGWYRQAPVKERELVAAINWSGGRTYYADSVKGRFTISRDNAKNTVYLQMNSLKPEDTAVYYCAAPRSFSGGYGYVSYDYWGQGTQVTVSS,high polyreactivity
22,QVQLVESGGGLVQAGGSLRLSCAASGFTFQYYDMGWYRQAPGKERELVAAISWSGGSTYYADSVKGRFTISRDNAKNTVYFQMNSLKPEDTAVYYCAAGYTRSRHYTPYDYWGQGTQVTVSS,high polyreactivity

row,Sequence,polyreactivity (PSR sort gate)
1,QVQLVESGGGLVQAGGSLRLSCAASGFTFQYYTMGWYRQAPGKERELLAAITYSGSTYYADSVKGRFTISRDNAKNTVYLQMNSLKPEDTAVYYCNVYRGRYLYAWRPLGYWGQGTQVTVSS,high polyreactivity
2,QVQLVESGGGLVQAGGSLRLSCAASGFTFRAYAMGWYRQAPGKERELVAAISWGGGSTYYADSVKGRFTISRDNAKNTVYLQMNSLKPEDTAVYYCATERRRYNTEYEYWGQGTQVTVSS,high polyreactivity
3,QVQLVESGGGLVQAGGSLRLSCAASGFTFRDYAMGWYRQAPGKEREFFADITFSGDNTRYADSVKGRFTISRDNAQNTVYLQMNSLKPEDTAVYYCNADRVVGPYDGYDYWGQGTQVTVSS,low polyreactivity
4,QVQLVESGGGLVQAGGSLRLSCAASGFTFRDYAMGWYRQAPGKERELVAAITRSGGRTYYADSVKGRFTISRDNAKNTVYLQMNSLKPEDTAVYYCNALDYLYGGIYLEEDYWGQGTQVTVSS,low polyreactivity
5,QVQLVESGGGLVQAGGSLRLSCAASGFTFRFYALGWYRQAPGKERELVAAISRRGGTTYYADSVKGRFTISRDNAKNTVYLQMNSLKPEDTAVYYCNKDWTYEHGYWGQGTQVTVSS,high polyreactivity
6,QVQLVESGGGLVQAGGSLRLSCAASGFTFRFYAMGWYRQAPAKERELVAAISRGGSTYYADSVKGRFTISRDNAKYTVYLQMNSLKPEDTAVFYCAKRGRYGDYWGQGTLVTVSS,high polyreactivity
7,QVQLVESGGGLVQAGGSLRLSCAASGFTFRIYAMGSYRQAPGKERELVAAISWAGGSTFYADSVKGRFTISRDNAKNTVYLQMNSLKPEDTAVYYCAADTAFHYDYWGQGTQVTVSS,low polyreactivity
8,QVQLVESGGGLVQAGGSLRLSCAASGFTFRIYAMGWYRQAPGKERELVATISWSGTSTYYADSVKGRFTISRDYAKNTVFFQMNSLNPEDTAVYYCAKDGVSFYWLNKYYYWGQGTQVTVSS,low polyreactivity
9,QVQLVESGGGLVQAGGSLRLSCAASGFTFRKNVMGWYRQATGKERELVAVISSSGGSTYYADSVKGRFTISRDNAKNTVYLPMNRLKPEVTAVYYCNAGRYGSNLEYWGQGTQLTVSS,low polyreactivity
10,QVQLVESGGGLVQAGGSLRLSCAASGFTFRKYAMGLYRQAPGKERELVASITSGGSTYYADSVKGRFTISRDNAKNTVYLQMNSLKPEDNAVYYCNAVKATLASGRLRGAYYYWGQGNQVTVSS,high polyreactivity
11,QVQLVESGGGLVQAGGSLRLSCAASGFTFRKYAMGWYRPAPGKERELVAGITSGGSTNYADSVKGRFTISRDNAKNTVYLQMNSLKPEDTSVYYCNAARYYAYIGDYWGQGTQVTVSS,high polyreactivity
12,QVQLVESGGGLVQAGGSLRLSCAASGFTFRLYVMGWYIQAPGKERELVAAISSRGGSTYYADSLKGRFTISRDNAKNTVNLQMNSLKPEDTAVYYCAADRPRGRETVDYWGQGTQVTVSS,high polyreactivity
13,QVQLVESGGGLVQAGGSLRLSCAASGFTFRNYAMGWYRQAPGKERELVAAISKSGGSTYYADSVKGRFTISRDNAKNTVYLQMNSLKPEDTAVYYCATDYLYVYGFEYYYWGQGTQVTVSS,high polyreactivity
14,QVQLVESGGGLVQAGGSLRLSCAASGFTFRNYAMGWYRQAPGKERELVAAISQSGGITYYADTVKGRFTISRDNAKNTVYLQMYSLKPEDTAVYYCAAERFPRSSKGYFRTYDYWGQGTQVTVSS,high polyreactivity
15,QVQLVESGGGLVQAGGSLRLSCAASGFTFRQYAMGWYRQAPGKERELVAAISSGGSTYYADSVKGRFTISRDNAKNTVYLQMNSLKPEDTAVYYCNAVARYYVAYDMYWGQGTQVTVSS,high polyreactivity
16,QVQLVESGGGLVQAGGSLRLSCAASGFTFRRNAMGWYRQAPGKERELVAAITYNGGTTYYADSVKGRFTISRDNAKNTVYLLMNSLKPEDTAVYYCNAPYGRQGYDYWGQGTQVTVSS,low polyreactivity
17,QVQLVESGGGLVQAGGSLRLSCAASGFTFRRYAMGGYRQAPGKERELVAAISANGGSTYYADSVKGRFTISRDNAKNTVYLQMNSLKPEDTAVYYCNARKYTQSIHYDYWGQGTQVTVSS,high polyreactivity
18,QVQLVESGGGLVQAGGSLRLSCAASGFTFRRYAMGWYRQAPGKERELVASISWTGGSTHYADSVKGRFTISRDNAKNTVYLQMNSLKPEDSAVYYSNTVWYYLRSFNIDHYYDYWGQGTQVTVSS,high polyreactivity
19,QVQLVESGGGLVQAGGSLRLSCAASGFTFRRYAMGWYRQAPGKEREMVAVINVSDGSTYYADSVKGRFTISRDNAKNTVYLQMNSLKPEDTAVYYCAAYLYNRPYQLPGYYDGYGYWGQGTQVTVSS,low polyreactivity
20,QVQLVESGGGLVQAGGSLRLSCAASGFTFRRYAMGWYRQAPGQDRELVAAISYRGGTYYADSVKGRFTISRDNAKNTVYLQMNSLKPEDTAVYYCNARYRGKYSSYGYWGQGTQVTVSS,high polyreactivity
21,QVQLVESGGGLVQAGGSLRLSCAASGFTFRRYTMGWYRQAPGKERELVAAISGSGGSTYYADSVKGRFTISRDNAKNTVYLQMNSLKPEDTAVYYCNAPYLHYVIVFTDYSQRYDYWGQGTQVTVSS,high polyreactivity
